Values quoted from earlier work in patent publication US20250341526A1, “NOVEL DYES” (Quantum-Si Incorporated, priority 2024, published 2025).
“Also recorded” adds a separate entry of the source.

B1: PS410: ClpS amino acid recognition protein, SEQ ID NO: 33 (protein)
chain: MGDDDQSSREGEGDVAFQTADPELKRPSLYRVVLLNDDYTPMEFVVHILEQFFAMNREKATQVMLAVHTQGKGVCGVYTKDIAETKAALVNDYSRENQHPLLCEVEELDDESR
B2: PS406: ClpS amino acid recognition protein, SEQ ID NO: 29 (protein)
chain: MPDATTTPRTKTLTRTARPPLHKVILVNDDFTPREFVVRLLKAEFRTTGDEAQRIMITAHMKGSCVVAVFTREIAESKATRATETARAEGFPLLFTTEPEE
B3: PS411: ClpS amino acid recognition protein, SEQ ID NO: 34 (protein)
chain: MTRPDAPEYDDDLAVEPAEPELARPPLYKVVLHNDDFTPMEFVVEVLQEFFNMDSEQAVQVMLAVHTQGKATCGIFTRDIAETKSYQVNEYARECEHPLMCDIEAAD
B4: PS413: ClpS amino acid recognition protein, SEQ ID NO: 36 (protein)
chain: MMKQCGSYFLIKAVQDFKPLSKHRSDTDVITETKIQVKQPKLYTVIMYNDNYTTMDFVVYVLVEIFQHSIDKAYQLMMQIHESGQAAVALLPYDLAEMKVDEVTALAEQESYPLLTTIEPA
B5: PS416: ClpS amino acid recognition protein, SEQ ID NO: 39 (protein)
chain: MTSQTDTLVKPNIQPPSLFKVIYINDSVTTMEFVVESLMSVFNHSADEATRLTQLVHEEGAAVVAILPYELAEQKGMEVTLLARNNGFPLAIRLEPAV
B6: PS414: ClpS amino acid recognition protein, SEQ ID NO: 37 (protein)
chain: MQAAGNEPPDPQNPGDVGNGGDGGNQDGSNTGVVVKTRTRTRKPAMYKVLMLNDDYTPMEFVVHVLERFFQKNREEATRIMLHVHRRGVGVCGVYTYEVAETKVTQVMDLARQNQHPLQCTIEKE
B7: PS409: ClpS amino acid recognition protein, SEQ ID NO: 32 (protein)
chain: MPARLTDIEGEPNTDPVEDVLLADPELKKPQMYAVVMYNDDYTPMEFVVDVLQNHFKHTLDSAISIMLAIHQQGKGIAGIYPKDIAETKAQTVNRKARQAGYPLLSQIEPQG
B8: PS369: ClpS amino acid recognition protein, SEQ ID NO: 2 (protein)
chain: MTSTLRARPARDTDLQHRPYPHYRIIVLDDDVNTFQHVVNCLVTFLPGMTRDQAWAMAQQVDGEGSAVVWTGPQEQAELYHVQLGNHGLTMAPLEPV
B9: PS415: ClpS amino acid recognition protein, SEQ ID NO: 38 (protein)
chain: MALPETRTKIKPDVNIKEPPNYRVIYLNDDKTSMEFVIGSLMQHFSYPQQQAVEKTEEVHEHGSSTVAVLPYEMAEQKGIEVTLDARAEGFPLQVKIEPAER
B10: PS370: ClpS amino acid recognition protein, SEQ ID NO: 3 (protein)
chain: MFNSLGTVLDPKKSKAKYPEARVIVLDDNFNTFQHVANCLLAIIPRMCEQRAWDLTIKVDKAGSAEVWRGNLEQAELYHEQLFSKGLTMAPIEKT
B11: PS405: ClpS amino acid recognition protein, SEQ ID NO: 28 (protein)
chain: MVSIGAATVACAEGRPIFSGYFDWLAAMPETVTVPRTRLRPKTERPKLHKVILVNDDYTPREFVVTVLKGEFHMSEDQAQRVMITAHRRGVCVVAVFTKDVAETKATRASDAGRAKGYPLQFTTEPEE
B12: PS397: ClpS amino acid recognition protein, SEQ ID NO: 25 (protein)
chain: MSDNEVAPKRKTRVKPKLERPRLYKVILVNDDYTPRDFVVMVLKAIFRMSEEAGYRVMMTAHKLGTSVVVVCARDIAETKAKEATDLGKEAGFPLMFTTEPEE
B13: PS396: ClpS amino acid recognition protein, SEQ ID NO: 24 (protein)
chain: MSDNDVALKPKIKSKPKLERPKLYKVILVNDDFTPREFVIAVLKMVFRMSEETGYRVMLTAHRLGTSVVVVCARDIAETKAKEAVDFGKEAGFPLMFTTEPEE
B14: PS412: ClpS amino acid recognition protein, SEQ ID NO: 35 (protein)
chain: MATKREGSTLLEPTAAKVKPPPLYKVLLLNDDYTPMEFVVLVLKKFFGIDQERATQIMLKVHTEGVGVCGVYPRDIAHTKVEQVVDFARQHQHPLQCTMEES
B15: PS407: ClpS amino acid recognition protein, SEQ ID NO: 30 (protein)
chain: MPSNKRQMCLSDIKNSFNESGIVDWHISPRLANEPSEEGDSDLAVQTVPPELKRPPLYAVVLLNDDYTPMEFVIEILQQYFAMNLDQATQVMLTVHYEGKGVAGVYPRDIAETKANQVNNYARSQGHPLLCQIEPKD
B16: PS408: ClpS amino acid recognition protein, SEQ ID NO: 31 (protein)
chain: MTDPPSKGREDVDLATRTKPKTQRPPLYKVLLLNDDFTPMEFVVHILERLFGMTHAQAIEIMLTVHRKGVAVVGVFSHEIAETKVAQVMELARRQQHPLQCTMEKE
B17: PS404: ClpS amino acid recognition protein, SEQ ID NO: 27 (protein)
chain: MPVSVTAPQTKTKTKPKVERPKLYKVILVNDDFTPREFVVRVLKAEFRMSEDQAAKVMMTAHQRGVCVVAVFTRDVAETKATRATDAGRAKGYPLLFTTEPEE
B18: PS398: ClpS amino acid recognition protein, SEQ ID NO: 26 (protein)
chain: MPLKAQNRSIVGRRDEWPPPTTQSSSETKSESKRVSDTGADTKRKTKTVPKVEKPRLYKVILVNDDYTPREFVLVVLKAVFRMSEDQGYKVMITAHQKGSCVVAVYTRDIAETKAKEAVDLAKEIGFPLMFRTEPEE

system: amino acid at a terminal position of a polypeptide; details: Table 1, ClpS proteins; amino acid at terminal position; inferred from literature and/or demonstrated by the inventors; cited from earlier work

Molecule	Binding Pref.
B1	F, W, L
B2	F, Y, W
B3	F, Y, W, L
B4	F, Y, W, L
B5	F, Y, W, L
B6	F, Y, W, L
B7	F, Y, W, L
B8	F, Y, W, L
B9	F, Y, W
B10	F, L
B11	F, Y, W
B12	F, Y, W
B13	F, W
B14	F, Y, W, L
B15	F, Y, W, L
B16	F, Y, W, L
B17	F, Y, W
B18	F, W

same assay, conditions: Table 2; amino acid at terminal position (phosphotyrosine also internal); inferred from literature and/or demonstrated by the inventors; cited from earlier work

Molecule	Binding Pref.
H. sapiens p62 fragment 1-180: amino acid recognition protein, SEQ ID NO: 121	K, R, H,; also recorded: W, F, Y
H. sapiens p62 fragment 126-180: amino acid recognition protein, SEQ ID NO: 122	K, R, H,; also recorded: W, F, Y
Rattus norvegicus p62 protein: amino acid recognition protein, SEQ ID NO: 124	K, R, H,; also recorded: W, F, Y
